Tests used:
[1] = target: Fc receptors on primary human blood cells: NK cells (CD16+CD56+); test: flow cytometry on human blood cells (Example 7)
[2] = target: Fc receptors on primary human blood cells: granulocytes (CD66+); test: flow cytometry on human blood cells (Example 7)
[3] = target: Fc receptors on primary human blood cells: granulocytes (CD66+); test: flow cytometry on human granulocytes (CD66+)

For “Fuc+ cetuximab (high fucose anti-EGFR antibody cetuximab produced in mouse myeloma cell line SP2/0)”, the percent of NK cells bound [1] was < 5% and the percent of granulocytes bound [2] was < 5%.
A percent of granulocytes bound [3] of 100% was found for “Fuc- cetuximab (low fucosylation variant of cetuximab; reduced fucose anti-EGFR antibody according to the invention)” in this work.
A percent of granulocytes bound [3] of 20% was found for “control antibody having an Fc glycosylation pattern similar to that of Fuc- cetugex (including a similarly low fucosylation)” in this work.

From patent US20160068609A1
